Columns and labels:
ANGPTL3 gene [1] = assay: ANGPTL3 gRNA/SpCas9 editing in primary cynomolgus hepatocytes (Table 3); assay type: cell-based, cynomolgus monkey
Procedure: (§1) In set of experiments, PCSK9 gRNAs were co-transfected with an equivalent amount (1:1 ratio by weight) of in vitro transcribed commercially available SpCas9 mRNA MS002 purchased from TriLink Biotechnologies into primary human hepatocytes at 2500, 500, or 100 ng/RNA/mL and processed as described in detailed methods. Extracted genomic DNA was analyzed for gene editing at the target site with next-generation sequencing of PCR amplicons generated around the target sites. Samples were prepared using the Nextera XT DNA library preparation kit (Illumina) according to the manufacturer's protocol. Briefly, two rounds of PCR were performed first to amplify the region of interest and second to add DNA sequences required for next generation sequencing and sample identification to the initial product. The final amplicon was sequenced on the Illumina MiSeq instrument according to the manufacturer's protocol. A wide range of editing activities (Table 2) were observed. In a second set of experiments, ANGPTL3 gRNAs were co-transfected with an equivalent amount of in vitro transcribed SpCas9 mRNA (1:1 ratio by weight) into primary human hepatocytes and processed and analyzed similarly (Table 3).
(§2) Plating, culturing, and transfection of primary hepatocytes. Primary human liver hepatocytes (PHH) and primary cynomolgus liver hepatocytes (PCH) from BioIVT were cultured per the manufacturer's protocol. Briefly, primary human hepatocytes and primary cyno hepatocytes were obtained as frozen aliquots from BioIVT. Four lots of primary human hepatocytes, each derived from a de-identified individual donor, were used for the experiments: STL (main donor) was used for all experiments, including screening experiments and off-target experiments; HLY, JLP, and TLY were used for off-target experiments. The HFG lot of primary cyno hepatocytes were used for experiments. Following the manufacturer's instructions, cells were thawed and rinsed prior to plating in 24-well plates that had been coated with bovine collagen overnight, with a density of approximate 350,000 cells/well in INVITROGRO hepatocyte medium supplemented with TORPEDO antibiotic mix (BioIVT). The cells were thawed and resuspended in hepatocyte thawing medium followed by centrifugation at 100 g for 10 min at 4° C. The supernatant was discarded, and the pelleted cells resuspended in hepatocyte plating medium. Each vial contains approximately 5 million cells that were used for plating one 24-well plate. Plated cells were allowed to settle and adhere for 4-6 h in a tissue culture incubator at 37° C. under 5% CO2 atmosphere. After incubation, cells were checked for monolayer formation. The incubating media were then replaced with fresh hepatocyte maintenance media (complete INVITROGRO medium obtained from BioIVT, the cell line provider). The cells thus became ready for transfection. Each of the gRNAs were co-transfected with an equivalent amount of in vitro transcribed ABE8.8 mRNA (1:1 ratio by molecular weight) into primary human hepatocytes via MessengerMax reagent (Lipofectamine), using various dilutions to assess for editing activity at different concentrations of test article. MessengerMAX from Thermo Fisher is used for transfection. Solution A: desired amount of guide RNA is mixed with 1:1 wt ratio of mRNA in OptiMEM. Solution B: MessengerMAX in OptiMEM. After mixing solutions A and B, the mixture was incubated at room temperature for 20 min. 60 μL of the incubated solution was added dropwise to each cell wells. For protospacer sequences that were a perfect match to the corresponding cynomolgous monkey PCSK9 or ANGPTL3 gene sequence, each gRNA was also co-transfected with an equivalent amount of ABE8.8 mRNA (1:1 ratio by molecular weight) into primary cynomolgous hepatocytes, and followed the same transfection protocol. The cells were then allowed to remain at 37° C. for 3 days. […]

ANGPTL3 gene [2] = assay: ANGPTL3 gRNA/SpCas9 editing in primary human hepatocytes (Table 3); assay type: cell-based
Procedure: as §1, §2

| Molecule | Cyno Primary Hepatocyte Editing % 100 ng/mL (ANGPTL3 gene [1]) [%] | Cyno Primary Hepatocyte Editing % 500 ng/ml (ANGPTL3 gene [1]) [%] | Human Primary Hepatocyte Editing % 100 ng/ml (ANGPTL3 gene [2]) [%] | Human Primary Hepatocyte Editing % 500 ng/mL (ANGPTL3 gene [2]) [%] |
| --- | --- | --- | --- | --- |
| GA111: ANGPTL3 gRNA; protospacer GCCAATGGCCTCCTTCAGTT (SEQ ID NO: 109) (nucleic acid, 2'-O-methyl at 1, 2, other sugars and backbone not given here; further chemistry not fully specified) guide: GCCAATGGCCTCCTTCAGTTGTTTTAGAGCTAGAAATAGCAAGTTAAAATAAGGCTAGTCCGTTATCAACTTGAAAAAGTGGCACCGAGTCGGTGCTTTT | 22.61 | 28.98 | 10.72 | 24.08 |
| GA117: ANGPTL3 gRNA; protospacer ACTACAAGTCAAAAATGAAG (SEQ ID NO: 115) (nucleic acid, 2'-O-methyl at 1, 2, other sugars and backbone not given here; further chemistry not fully specified) guide: ACTACAAGTCAAAAATGAAGGTTTTAGAGCTAGAAATAGCAAGTTAAAATAAGGCTAGTCCGTTATCAACTTGAAAAAGTGGCACCGAGTCGGTGCTTTT | 10.01 | 26.11 | 7.08 | 16.55 |
| GA110: ANGPTL3 gRNA; protospacer GACCATGTCCCAACTGAAGG (SEQ ID NO: 108) (nucleic acid, 2'-O-methyl at 1, 2, other sugars and backbone not given here; further chemistry not fully specified) guide: GACCATGTCCCAACTGAAGGGTTTTAGAGCTAGAAATAGCAAGTTAAAATAAGGCTAGTCCGTTATCAACTTGAAAAAGTGGCACCGAGTCGGTGCTTTT | 8.59 | 15.99 | 5.37 | 13.63 |
| GA127: ANGPTL3 gRNA; protospacer AACATGATGGTAAGACACTT (SEQ ID NO: 125) (nucleic acid, 2'-O-methyl at 1, 2, other sugars and backbone not given here; further chemistry not fully specified) guide: AACATGATGGTAAGACACTTGTTTTAGAGCTAGAAATAGCAAGTTAAAATAAGGCTAGTCCGTTATCAACTTGAAAAAGTGGCACCGAGTCGGTGCTTTT | 19.89 | 33.67 | 5.77 | 18.74 |
| GA125: ANGPTL3 gRNA; protospacer TGATGGTAAGACACTTTGGT (SEQ ID NO: 123) (nucleic acid, 2'-O-methyl at 1, 2, other sugars, backbone and T or U not given here; further chemistry not fully specified) guide: UGATGGTAAGACACTTTGGTGTTTTAGAGCTAGAAATAGCAAGTTAAAATAAGGCTAGTCCGTTATCAACTTGAAAAAGTGGCACCGAGTCGGTGCTTTT | 12.91 | 19.72 | 5.04 | 16.27 |
| GA113: ANGPTL3 gRNA; protospacer ATTCTGGAGGAAATAACTAG (SEQ ID NO: 111) (nucleic acid, 2'-O-methyl at 1, 2, other sugars, backbone and T or U not given here; further chemistry not fully specified) guide: AUTCTGGAGGAAATAACTAGGTTTTAGAGCTAGAAATAGCAAGTTAAAATAAGGCTAGTCCGTTATCAACTTGAAAAAGTGGCACCGAGTCGGTGCTTTT | 12.07 | 26.67 | 6.00 | 19.97 |
| GA122: ANGPTL3 gRNA; protospacer CTTTTATTTGACTATGCTGT (SEQ ID NO: 120) (nucleic acid, 2'-O-methyl at 1, 2, other sugars, backbone and T or U not given here; further chemistry not fully specified) guide: CUTTTATTTGACTATGCTGTGTTTTAGAGCTAGAAATAGCAAGTTAAAATAAGGCTAGTCCGTTATCAACTTGAAAAAGTGGCACCGAGTCGGTGCTTTT | 7.28 | 16.76 | 4.45 | 13.82 |
| GA126: ANGPTL3 gRNA; protospacer GGAGTAGTTCTTGGTGCTCT (SEQ ID NO: 124) (nucleic acid, 2'-O-methyl at 1, 2, other sugars and backbone not given here; further chemistry not fully specified) guide: GGAGTAGTTCTTGGTGCTCTGTTTTAGAGCTAGAAATAGCAAGTTAAAATAAGGCTAGTCCGTTATCAACTTGAAAAAGTGGCACCGAGTCGGTGCTTTT | 8.29 | 17.57 | 6.73 | 15.21 |
| GA116: ANGPTL3 gRNA; protospacer GTAGAATTTTTTCTTCTAGG (SEQ ID NO: 114) (nucleic acid, 2'-O-methyl at 1, 2, other sugars, backbone and T or U not given here; further chemistry not fully specified) guide: GUAGAATTTTTTCTTCTAGGGTTTTAGAGCTAGAAATAGCAAGTTAAAATAAGGCTAGTCCGTTATCAACTTGAAAAAGTGGCACCGAGTCGGTGCTTTT | 10.84 | 19.83 | 3.78 | 16.33 |
| GA129: ANGPTL3 gRNA; protospacer AGTTCTTGGTGCTCTTGGCT (SEQ ID NO: 127) (nucleic acid, 2'-O-methyl at 1, 2, other sugars and backbone not given here; further chemistry not fully specified) guide: AGTTCTTGGTGCTCTTGGCTGTTTTAGAGCTAGAAATAGCAAGTTAAAATAAGGCTAGTCCGTTATCAACTTGAAAAAGTGGCACCGAGTCGGTGCTTTT | 5.36 | 20.06 |  |  |
| GA108: ANGPTL3 gRNA; protospacer TCCCAACTGAAGGAGGCCAT (SEQ ID NO: 106) (nucleic acid, 2'-O-methyl at 1, 2, other sugars, backbone and T or U not given here; further chemistry not fully specified) guide: UCCCAACTGAAGGAGGCCATGTTTTAGAGCTAGAAATAGCAAGTTAAAATAAGGCTAGTCCGTTATCAACTTGAAAAAGTGGCACCGAGTCGGTGCTTTT | 4.11 | 15.49 | 4.95 | 19.43 |
| GA128: ANGPTL3 gRNA; protospacer TGAAGAAAGGGAGTAGTTCT (SEQ ID NO: 126) (nucleic acid, 2'-O-methyl at 1, 2, other sugars, backbone and T or U not given here; further chemistry not fully specified) guide: UGAAGAAAGGGAGTAGTTCTGTTTTAGAGCTAGAAATAGCAAGTTAAAATAAGGCTAGTCCGTTATCAACTTGAAAAAGTGGCACCGAGTCGGTGCTTTT | 0.19 | 32.55 | 10.29 | 25.39 |
| GA109: ANGPTL3 gRNA; protospacer GGCCTCCTTCAGTTGGGACA (SEQ ID NO: 107) (nucleic acid, 2'-O-methyl at 1, 2, other sugars and backbone not given here; further chemistry not fully specified) guide: GGCCTCCTTCAGTTGGGACAGTTTTAGAGCTAGAAATAGCAAGTTAAAATAAGGCTAGTCCGTTATCAACTTGAAAAAGTGGCACCGAGTCGGTGCTTTT | 4.15 | 15.11 | 6.60 | 18.07 |

Reference: patent US20250152746A1, “BASE EDITING OF ANGPTL3 AND METHODS OF USING SAME FOR TREATMENT OF DISEASE” (Verve Therapeutics, Inc., priority 2020, published 2025)
